The target in this experiment is Gallus gallus laforin (Gallus gallus) (UniProt Q5ZL46). Briefly: SEC; first pass over a HiLoad 16/60 Superdex 200 column after IMAC and tag removal; buffer C (20 mM Tris/HCl pH 7.5, 100 mM NaCl, 2 mM DTT); multimer peak, dimer and monomer species seen.

Usually stoichiometry N stands for the number of molecules, sites or subunits per partner or assembly.

“Gallus gallus laforin (from UniProt Q5ZL46 1-319) (enzyme)”: the stoichiometry N is 2.

These data come from PMC4234410.
